The values that follow come from patent publication US20240228639A1 (ALLOGENE THERAPEUTICS, published 2024).

“And” between values parts separate entries of the source, which are not always exact repeats. Identical values can stand only once.

One assay addresses T1, Biotin-hCD70 (human, UniProt P32970 39-193, limits assumed, biotinylated (site not stated)).
T1 construct: also called biotin-hCD70 complex; target antigen hCD70
T1 sequence (looked up): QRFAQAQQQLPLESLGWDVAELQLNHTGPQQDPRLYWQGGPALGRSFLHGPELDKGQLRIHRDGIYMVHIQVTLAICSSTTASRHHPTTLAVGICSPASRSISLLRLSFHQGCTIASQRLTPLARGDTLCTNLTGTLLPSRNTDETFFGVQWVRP
The assay can be described thus: SPR, Bt-hCD70 alone injected over clone 60 (hybridoma and recombinant) captured on anti-mouse Fc, then streptavidin. For orientation: SPR reads the build-up and loss of mass on a sensor chip optically.

Assay [1] concerns the target T2, 4F11 scFv 10xHis.
T2 construct: also called 4F11-derived scFv with a His tag; anti-CD70 scFv 4F11
The assay can be described thus: SPR (Biacore T200), 37 C; antibody captured on anti-mouse Fc chip, 4F11 scFv 10xHis 1.2-100 nM as analyte; 1:1 Langmuir fit. On the procedure:
(§1) All SPR analysis was determined on a BIACore T200 SPR instrument (Cytiva, Marlborough, MA). For kinetic analysis and determination of simultaneous target antigen binding of CD70 anti-idiotype antibodies, mouse Fc was captured on a Biacore Series S CM4 sensor chip by amine-coupling of an anti-mouse Fc reagent (Mouse Antibody Capture Kit, Cytiva, BR100838) to the Biacore Series S CM4 sensor chip using a running buffer of 10 mM HEPES, 150 mM NaCl, 0.05% (v/v) Tween-20, pH 7.4 at 25° C. All surfaces of the sensor chip were activated with a 1:1 (v/v) mixture of 400 mM 1-Ethyl-3-(3-Dimethylaminopropyl) carbodiimide hydrochloride (EDC) and 100 mM N-hydroxysuccinimide (NHS) for 7 min at 10 μL/min. The anti-mouse Fc reagent was diluted to 30 μg/mL in 10 mM sodium acetate (pH 5.0) and injected on all four flow cells for 7 min at 10 μL/min, then all flow cells were blocked with 100 mM ethylenediamine in 200 mM Borate buffer pH 8.5 for 7 min at […].
(§2) All interaction experiments were performed at 37° C. using the same running buffer as described above supplemented with 1 mg/mL BSA. […] The dissociation was monitored for 10 min followed by regeneration of all flow cells with 10 mM glycine at pH 1.7 for 3 min. […]

The target in assay [2] is T2, 4F11 scFv 10xHis. The assay can be described thus: SPR (Biacore), clone 60 captured on anti-mouse Fc, 4F11_scFv_0166-P as analyte, 37 C, 1:1 Binding model; Table 3 prints 1.43 nM for this lot, the sheet prints 1.422E-9. On the procedure:
as §1, §2

T2 sequence (scFv, as listed by the source): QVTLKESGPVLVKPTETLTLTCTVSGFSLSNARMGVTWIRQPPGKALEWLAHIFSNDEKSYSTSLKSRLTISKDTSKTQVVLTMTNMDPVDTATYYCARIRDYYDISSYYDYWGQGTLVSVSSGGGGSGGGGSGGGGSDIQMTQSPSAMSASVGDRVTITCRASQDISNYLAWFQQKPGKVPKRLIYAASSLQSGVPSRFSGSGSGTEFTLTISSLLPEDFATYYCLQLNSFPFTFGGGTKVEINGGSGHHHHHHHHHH

B1: anti-idiotype antibody Clone 60 (IDA2002-1.60) (antibody, mouse IgG1, kappa, V domains shown)
VH: EVQLQQSGPELVKTGTSVKISCKASGYSITGYYIHWVKQSHGRSLDWIGSISFYNGATTYNQKFKGKVTFTVDTSSSTAYMQFNSLTSEDSAVYYCGRRGDDYDVFAYWGQGTLVTVSA
VL: DIVLTQSPASLAVSLGQRATISCRASESVDSYGYSFLHWYQQKPGQPPTLLIYRASNLESGIPARFSGSGSRTDFTLTINSVEADDVATYYCQQSNEDPWTFGGGTKLEIKR
notes: Mouse IgG1 kappa; also called clone 1.60; Clone 60-PE
B1: the binding result with Biotin-hCD70 is given as “no binding (tested: 1 uM)”. In addition, in the assay with 4F11 scFv 10xHis [1], the dissociation constant (Kd) is 1.43 nM and 1.52 nM and 1.42 nM and 1.32 nM; the off-rate constant (koff) is 0.00343 s⁻¹ and 0.00359 s⁻¹ and 0.00312 s⁻¹ and 0.00348 s⁻¹; the kon is 2.7e+06 M⁻¹ s⁻¹ and 2.2e+06 M⁻¹ s⁻¹ (2×) and 2.4e+06 M⁻¹ s⁻¹; the t1/2 was 3.32 min and 3.37 min and 3.7 min and 3.22 min. The same molecule returned a Kd with 4F11 scFv 10xHis [2] of 1.42 nM.

As usually defined, the Kd is the equilibrium constant for the complex coming apart. As usually defined, the koff is the rate constant with which the complex falls apart. Read a low koff as slow dissociation. What is called kon is the second-order rate constant of association. A lower kon goes with slow association.
